Assay results reported in patent US20200157232A1 (TENEOONE, published 2020).

T1: human B-Cell Maturation Antigen (BCMA) (human, UniProt Q02223 1-54, limits assumed)
T1 construct: also called CD269; TNFRSF17
T1 sequence (looked up): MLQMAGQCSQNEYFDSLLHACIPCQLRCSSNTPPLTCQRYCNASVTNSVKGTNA

B1: anti-BCMA heavy chain-only antibody 308902, bivalent form (antibody, V domains shown)
VH: EVQLLESGGGLVQPGGSLRLSCAASGFTVSSYGMSWVRQAPGKGPEWVSGIRGSDGSTYYADSVKGRFTISRDNSKNTLYLQMNSLRAEDTAVYYCAKQGENDGPFDHRGQGTLVTVSS
notes: Heavy chain-only antibody with no light chain; UniAbs were expressed in HEK cells with CH1 deleted; also called UniAb 308902 (bivalent)
B2: anti-BCMA heavy chain-only antibody 308902, monovalent form (antibody, V domains shown)
VH: EVQLLESGGGLVQPGGSLRLSCAASGFTVSSYGMSWVRQAPGKGPEWVSGIRGSDGSTYYADSVKGRFTISRDNSKNTLYLQMNSLRAEDTAVYYCAKQGENDGPFDHRGQGTLVTVSS
notes: Heavy chain-only antibody with no light chain; UniAbs were expressed in HEK cells with CH1 deleted; also called UniAb 308902 (monovalent)

What was measured:
[1] = biological target: T1, human B-Cell Maturation Antigen (BCMA); experiment: ELISA, supernatant UniAb on human BCMA ECD (Abcam ab50089), detection goat anti-human IgG HRP
Procedure: Supernatants of 6 antibodies were tested for binding in a standard ELISA assay to a human BCMA. Binding to recombinant BCMA protein was determined by ELISA using human BCMA ECD obtained from Abcam (ab50089). The BCMA ECD protein was used at a concentration of 2 μg/mL to capture UniAbs at 50 ng/mL. […] All antibodies were diluted in 1×TBS with 0.05% Tween-20 and 1% dry milk powder.

[2] = biological target: T1, human B-Cell Maturation Antigen (BCMA); experiment: BioLayer Interferometry, Octet QK384, kinetics mode; bivalent form
Procedure: (§1) As used herein, the “Kd” or “Kd value” refers to a dissociation constant determined by BioLayer Interferometry, using an Octet QK384 instrument (Fortebio Inc., Menlo Park, Calif.) in kinetics mode. For example, anti-mouse Fc sensors are loaded with mouse-Fc fused antigen and then dipped into antibody-containing wells to measure concentration dependent association rates (kon). Antibody dissociation rates (koff) are measured in the final step, where the sensors are dipped into wells containing buffer only. The Kd is the ratio of koff/kon.

[3] = biological target: T1, human B-Cell Maturation Antigen (BCMA); experiment: BioLayer Interferometry, Octet QK384, kinetics mode
Procedure: as §1

[4] = biological target: T2, Lambda; experiment: ELISA on human lambda protein
T2 construct: off-target control antigen; also called human lambda protein

[5] = biological target: T3, IgG1k; experiment: ELISA, UniAb captures human IgG1 kappa, detection goat anti-human kappa HRP
T3 construct: off-target control antigen; also called human IgG1 kappa protein

[6] = biological target: T4, BVP; experiment: ELISA on baculovirus protein extract (BVP)
T4 construct: polyreactivity control; a protein mixture; also called Baculo Virus Protein Extract; baculovirus protein
Procedure: Off-target binding to Baculo Virus Protein Extract (BVP) was conducted by ELISA as above, with the modification of using 1×PBS and 1% dry milk powder for the diluent. BVP extract was obtained from INSERM (Nantes, France).

[7] = biological target: T5, HSA (Homo sapiens); experiment: ELISA on human serum albumin
T5 construct: off-target control antigen; also called human serum albumin
T5 sequence (P02768 25-609): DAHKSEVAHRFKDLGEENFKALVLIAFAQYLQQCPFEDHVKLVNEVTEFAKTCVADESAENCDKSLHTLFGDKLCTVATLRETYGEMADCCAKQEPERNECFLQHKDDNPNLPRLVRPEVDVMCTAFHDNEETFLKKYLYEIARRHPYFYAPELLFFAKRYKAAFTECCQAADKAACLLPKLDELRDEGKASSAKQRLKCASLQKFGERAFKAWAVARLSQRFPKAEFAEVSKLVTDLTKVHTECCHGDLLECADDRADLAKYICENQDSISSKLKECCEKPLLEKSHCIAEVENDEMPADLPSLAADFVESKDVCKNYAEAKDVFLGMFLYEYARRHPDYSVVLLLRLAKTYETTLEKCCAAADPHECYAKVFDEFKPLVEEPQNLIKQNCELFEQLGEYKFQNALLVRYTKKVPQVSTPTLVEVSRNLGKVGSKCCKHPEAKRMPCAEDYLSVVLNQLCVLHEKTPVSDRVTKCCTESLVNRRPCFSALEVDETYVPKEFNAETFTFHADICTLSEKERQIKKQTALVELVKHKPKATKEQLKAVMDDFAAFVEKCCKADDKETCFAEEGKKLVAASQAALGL

[8] = biological target: T1, human B-Cell Maturation Antigen (BCMA); experiment: BioLayer Interferometry, Octet QK384, kinetics mode; monovalent form
Procedure: as §1

| Binder | ELISA Binding Ratio (expt signal / dilutent only) [1] | Kd [2] [nM] | koff [3] [s⁻¹] | kon [3] [M⁻¹ s⁻¹] | ELISA Binding Ratio (expt signal / dilutent only) [4] | ELISA Binding Ratio (expt signal / dilutent only) [5] | ELISA Binding Ratio (expt signal / dilutent only), BVPscore [6] | ELISA Binding Ratio (expt signal / dilutent only) [7] | Kd [8] [nM] |
| --- | --- | --- | --- | --- | --- | --- | --- | --- | --- |
| B1 | 868 | 0.053 | 0.000177 | 3.38e+06 | 1.1 | 1.1 | 1.1 | 0.8 |  |
| B2 |  |  | 0.000719 | 923000 |  |  |  |  | 0.779 |
